The record followed here is PMC7835709, “Structural Insight Into the SARS-CoV-2 Nucleocapsid Protein C-Terminal Domain Reveals a Novel Recognition Mechanism for Viral Transcriptional Regulatory Sequences”.

Series [1] addresses T1, SARS-CoV-2 N CTD+IDR (SARS-CoV-2, UniProt P0DTC9 250-419). Put plainly: BLI; BLI (Octet RED96e, SSA sensors, biotinylated RNA immobilised): PBS, 0.02% Tween 20, 25 C; pH not stated; 1:1 kinetic fit. As to conditions: protein: recombinant, tags: 6xHis-SUMO tag removed by Ulp1, chain copies: 2. On the technique in general: Biolayer interferometry detects binding as a change in optical thickness at a sensor tip.

The target of series [2] is T2, SARS-CoV-2 N LKR+CTD (SARS-CoV-2, UniProt P0DTC9 183-365). Put plainly: BLI; value order as in text ('respectively'); BLI (Octet RED96e, SSA sensors, biotinylated RNA immobilised): PBS, 0.02% Tween 20, 25 C; pH not stated; 1:1 kinetic fit. The settings on record: protein: recombinant; tags: 6xHis-SUMO tag removed by Ulp1; chain copies: 2; label: 5' biotin.
For series [3], the target named is T1, SARS-CoV-2 N CTD+IDR. The series is described as above. As to conditions: protein: recombinant; tags: 6xHis-SUMO tag removed by Ulp1; chain copies: 2; label: 5' biotin.
The target in the next series is SARS-CoV-2 N-CTD (SARS-CoV-2, UniProt P0DTC9 250-365). Put plainly: BLI. The settings on record: protein: recombinant; tags: 6xHis-SUMO tag removed by Ulp1; chain copies: 2; label: 5' biotin.
For series [4], the target named is T2, SARS-CoV-2 N LKR+CTD. Put plainly: BLI; BLI (Octet RED96e, SSA sensors, biotinylated RNA immobilised): PBS, 0.02% Tween 20, 25 C; pH not stated; 1:1 kinetic fit. The settings on record: protein: recombinant; tags: 6xHis-SUMO tag removed by Ulp1; chain copies: 2; label: 5' biotin.

B1: Duplex TRS-2 (RNA2/RNA5) (dsRNA)
RNA 1: AAACGAAC
RNA 2: GUUCGUUU
For B1, the Kd (in general, a measure of binding affinity in units of concentration) with SARS-CoV-2 N CTD+IDR [1] (blunt, 8 bp) was 18 µM.

B2: Duplex TRS-1 (RNA1/RNA4) (dsRNA)
RNA 1: ACGAAC
RNA 2: GUUCGU
As to B2, the dissociation constant (Kd) in the series with SARS-CoV-2 N CTD+IDR [1] (blunt, 6 bp) came to 29 µM. For ACGAAC (ssRNA) [TRS-1 (RNA1)], the Kd worked out at 14 µM with SARS-CoV-2 N LKR+CTD [2], 33 µM with SARS-CoV-2 N CTD+IDR [3] and 320 µM with SARS-CoV-2 N-CTD.

B3: Duplex TRS-3 (RNA3/RNA6) (dsRNA)
RNA 1: AAACGAACUU
RNA 2: AAGUUCGUUU
For the molecule B3, the dissociation constant Kd with SARS-CoV-2 N CTD+IDR [1] (blunt, 10 bp) was 11 µM.

B4: Unpaired Duplex TRS-1 (RNA1/RNA5, TRS1-cTRS2) (dsRNA)
RNA 1: ACGAAC
RNA 2: GUUCGUUU
In the case of B4, the Kd in the series with SARS-CoV-2 N CTD+IDR [1] (3' overhang 2 nt (UU) on strand 2) amounted to 23 µM.

Consider AAACGAACUU (ssRNA) [TRS-3 (RNA3)], for which the figures for the dissociation constant Kd in the series with SARS-CoV-2 N LKR+CTD [4], in the series with SARS-CoV-2 N CTD+IDR [1] (label: 5' biotin) and with SARS-CoV-2 N-CTD were 61 µM, 5.9 µM and 150 µM, respectively.

B5: Unpaired Duplex TRS-2 (RNA2/RNA4) (dsRNA)
RNA 1: AAACGAAC
RNA 2: GUUCGU
Regarding B5, in the series with SARS-CoV-2 N CTD+IDR [1] (5' overhang 2 nt (AA) on strand 1 per Methods), the dissociation constant Kd was 33 µM. For the molecule AAACGAAC (ssRNA) [TRS-2 (RNA2)], the Kd with SARS-CoV-2 N LKR+CTD [4] is 17 µM; in the series with SARS-CoV-2 N CTD+IDR [1] (label: 5' biotin), 9.1 µM; with SARS-CoV-2 N-CTD, 180 µM.
